The source of these data is patent US20260240958.

This data set concerns LTRP5-ADD-ZIM3 (dCasX491 fused to DNMT3A ADD/CD, DNMT3L, ZIM3-KRAB) (synthetic construct). The data set is described as follows: cell_activity. The conditions noted are these: HEK293T day 8; non-targeting control.
LTRP5-ADD-ZIM3 (dCasX491 fused to DNMT3A ADD/CD, DNMT3L, ZIM3-KRAB) (synthetic construct), sequence (chain, as listed by the source): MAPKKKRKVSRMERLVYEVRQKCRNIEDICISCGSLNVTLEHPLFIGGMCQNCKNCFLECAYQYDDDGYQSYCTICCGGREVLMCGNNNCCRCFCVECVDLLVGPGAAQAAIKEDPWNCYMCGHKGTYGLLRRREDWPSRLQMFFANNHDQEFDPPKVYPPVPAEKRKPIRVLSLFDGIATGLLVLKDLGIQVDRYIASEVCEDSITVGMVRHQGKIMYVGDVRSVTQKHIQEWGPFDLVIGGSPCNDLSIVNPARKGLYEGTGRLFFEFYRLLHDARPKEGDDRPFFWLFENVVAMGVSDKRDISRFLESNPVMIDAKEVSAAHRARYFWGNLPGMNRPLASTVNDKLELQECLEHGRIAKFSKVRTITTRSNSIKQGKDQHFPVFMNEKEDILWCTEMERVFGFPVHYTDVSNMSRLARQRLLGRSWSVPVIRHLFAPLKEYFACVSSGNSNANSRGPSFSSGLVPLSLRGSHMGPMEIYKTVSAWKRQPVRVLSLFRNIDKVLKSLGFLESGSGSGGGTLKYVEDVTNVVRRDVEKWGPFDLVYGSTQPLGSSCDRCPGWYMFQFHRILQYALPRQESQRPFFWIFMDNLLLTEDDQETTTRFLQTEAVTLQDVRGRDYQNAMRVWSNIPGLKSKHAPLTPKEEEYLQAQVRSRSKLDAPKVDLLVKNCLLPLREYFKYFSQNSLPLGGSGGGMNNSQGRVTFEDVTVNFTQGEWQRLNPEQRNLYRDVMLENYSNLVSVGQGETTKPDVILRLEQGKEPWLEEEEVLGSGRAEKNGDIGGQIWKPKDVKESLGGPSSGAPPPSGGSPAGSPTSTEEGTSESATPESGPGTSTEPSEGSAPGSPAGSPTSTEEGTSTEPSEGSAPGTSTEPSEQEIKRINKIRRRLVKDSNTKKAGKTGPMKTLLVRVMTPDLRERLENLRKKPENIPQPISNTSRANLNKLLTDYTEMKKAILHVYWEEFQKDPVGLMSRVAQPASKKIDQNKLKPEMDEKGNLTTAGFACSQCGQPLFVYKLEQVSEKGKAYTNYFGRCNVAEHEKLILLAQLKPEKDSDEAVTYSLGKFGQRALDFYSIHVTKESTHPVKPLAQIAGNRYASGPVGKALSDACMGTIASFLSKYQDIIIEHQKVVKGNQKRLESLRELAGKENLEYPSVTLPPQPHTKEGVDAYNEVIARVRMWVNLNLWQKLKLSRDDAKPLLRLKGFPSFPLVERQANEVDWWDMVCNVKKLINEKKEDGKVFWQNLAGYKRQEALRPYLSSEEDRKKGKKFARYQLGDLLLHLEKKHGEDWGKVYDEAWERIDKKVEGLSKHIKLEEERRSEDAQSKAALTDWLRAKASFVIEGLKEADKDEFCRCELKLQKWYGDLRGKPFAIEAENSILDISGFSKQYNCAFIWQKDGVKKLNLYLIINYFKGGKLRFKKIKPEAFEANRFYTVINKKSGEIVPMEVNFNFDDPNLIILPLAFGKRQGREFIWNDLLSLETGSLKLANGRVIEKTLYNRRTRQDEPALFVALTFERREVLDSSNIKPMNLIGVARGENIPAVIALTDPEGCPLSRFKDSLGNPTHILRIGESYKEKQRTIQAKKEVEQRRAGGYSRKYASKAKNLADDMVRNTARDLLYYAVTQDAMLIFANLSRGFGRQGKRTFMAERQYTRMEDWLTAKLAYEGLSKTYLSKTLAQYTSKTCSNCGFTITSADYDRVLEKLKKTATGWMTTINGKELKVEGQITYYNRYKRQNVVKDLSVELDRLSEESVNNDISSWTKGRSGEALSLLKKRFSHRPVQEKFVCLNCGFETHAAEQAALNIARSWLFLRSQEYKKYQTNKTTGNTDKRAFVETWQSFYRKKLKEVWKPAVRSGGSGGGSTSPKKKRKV

“non-targeting spacer gRNA ; human B2M locus” displayed an activity (% HLA-negative cells) of 8.44.
